Experimental data published in US20240287208A1 (CONCEPT TO MEDICINE BIOTECH, published 2024).
Positions count from the first letter of the chain named.

Legend:
human CD40-His protein [1] = biological target: T1, human CD40-His protein (human, UniProt P25942 21-193); assay: ELISA, plate-coated human CD40-His
T1 construct: His-tagged recombinant protein; also called human CD40-his tag; recombinant CD40 protein
Method: (§1) To evaluate the binding activity of clones 42p155, 2p834, 2p931, 42p655, 2p1294, 2p957, 42p495, 3p78, 2p415, 2p442, 2p551, 2p80 and 2p1130, the chimeric monospecific antibody (mAb) from these clones were subjected to ELISA test, along with selicrelumab, the clinical benchmark anti-CD40 agonist antibodies.
(§2) Briefly, microtiter plates were coated with human CD40-His protein at 1.0 μg/ml in PBS, 100 μl/well at 4° C. overnight, then blocked with 150 µl/well of 1% BSA. Ten-fold dilutions of 42p155, 2p834, 2p931, 42p655, 2p1294, 2p957, 42p495, 3p78, 2p415, 2p442, 2p551, 2p80 and 2p1130 antibodies starting from 100 nM were added to each well and incubated for 1 hour at RT. The plates were washed with PBS/Tween and then incubated with Anti-Human IgG (H&L) (GOAT) Antibody Peroxidase Conjugated for 30 mins at RT. After washing, the plates were developed with TMB substrate and analyzed by spectrophotometer at OD 450 nm.

[2] = biological target: T2, human CD40 on the cell surface (human, UniProt P25942 21-277); assay: FACS, Jurkat cells overexpressing human CD40, PE anti-human IgG, MFI
T2 construct: whole, on cells; also called cell surface CD40; Jurkat-CD40
T2 sequence (P25942 21-277): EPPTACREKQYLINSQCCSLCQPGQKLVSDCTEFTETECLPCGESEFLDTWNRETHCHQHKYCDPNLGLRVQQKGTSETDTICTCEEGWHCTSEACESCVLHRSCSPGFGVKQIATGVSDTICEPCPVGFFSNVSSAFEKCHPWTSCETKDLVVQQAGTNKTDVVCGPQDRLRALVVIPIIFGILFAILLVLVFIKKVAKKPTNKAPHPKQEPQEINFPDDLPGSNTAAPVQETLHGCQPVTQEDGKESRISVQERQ
Method: To evaluate their binding affinity to cell surface CD40, chimeric anti-CD40 monospecific antibodies were tested in Jurkat cell lines that overexpressed CD40 by FACS. A total number of 1×10⁵ Jurkat-CD40 cells in each well were incubated with 10-fold serially diluted antibodies starting from 100 nM for 30 minutes at 4° C. in FACS buffer. After wash by FACS buffer, PE conjugated-anti-human IgG antibody was added to each well and incubated at 4° C. for 30 minutes. After wash, MFI of PE was evaluated by MACSQuant Analyzer 16.

[3] = biological target: T2, human CD40 on the cell surface; assay: cell-based or functional assay
human 4-1BB protein = biological target: T3, human 4-1BB protein (human, UniProt Q07011 24-186); assay: ELISA, plate-coated protein
T3 construct: also called 4-IBB
Method: (§3) To evaluate the cross reactivity of chimeric anti-CD40 antibodies to other family members of TNF receptors, the ELISA binding towards human 4-1BB and human OX40 were performed.
as §2, with “4-1BB protein or human OX40” for “CD40-His”, “1” for “1.0”, “μl/well” for “µl/well”

human OX40 protein = biological target: T4, human OX40 protein (human, UniProt P43489 29-216, limits assumed); assay: ELISA, plate-coated protein
T4 sequence (looked up): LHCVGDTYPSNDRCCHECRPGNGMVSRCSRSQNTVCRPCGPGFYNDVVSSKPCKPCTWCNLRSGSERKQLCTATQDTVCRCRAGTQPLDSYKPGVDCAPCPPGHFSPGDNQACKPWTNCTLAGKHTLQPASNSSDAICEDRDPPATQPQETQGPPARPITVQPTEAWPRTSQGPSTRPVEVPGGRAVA
Method: as §3
as §2, with “4-1BB protein or human OX40” for “CD40-His”, “1” for “1.0”, “μl/well” for “µl/well”

[4] = biological target: T5, cynomolgus CD40-His protein (cynomolgus, UniProt G7PG38 21-193); assay: ELISA, plate-coated cynomolgus CD40-His
T5 construct: His-tagged recombinant protein; also called cyno CD40 antigen
Method: as §1
as §2, with “The binding affinity of these clones to cynomolgus CD40 was also tested. Microtiter” for “Briefly, microtiter”, “cynomolgus” for “human”, “µl/well” for “μl/well”, “nm. As shown in FIG. 1B and Table 2, all these clones bound to cynomolgus CD40 at high activity, showing good cross-reactivity between human and cynomolgus CD40 proteins.” for “nm.”

human 5T4 = biological target: T6, human 5T4 (human, UniProt Q13641 32-355, limits assumed); assay: competitive ELISA on human 5T4
T6 construct: also called hu5T4
T6 sequence (looked up): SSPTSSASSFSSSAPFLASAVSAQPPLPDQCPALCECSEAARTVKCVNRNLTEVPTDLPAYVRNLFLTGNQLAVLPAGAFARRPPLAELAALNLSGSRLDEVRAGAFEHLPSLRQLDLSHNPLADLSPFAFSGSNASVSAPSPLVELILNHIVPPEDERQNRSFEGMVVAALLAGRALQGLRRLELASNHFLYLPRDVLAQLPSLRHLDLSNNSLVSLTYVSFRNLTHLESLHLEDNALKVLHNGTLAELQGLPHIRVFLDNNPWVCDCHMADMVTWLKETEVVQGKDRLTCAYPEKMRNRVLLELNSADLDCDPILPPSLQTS

[5] = biological target: T2, human CD40 on the cell surface; assay: FACS, human dendritic cells, MFI
human CD40-His protein [6] = biological target: T1, human CD40-His protein; assay: SPR Biacore T200, antibody captured on Protein A, CD40-His as analyte
Method: Bispecific antibodies with each of the 42p155, 2p834, 2p931, 42p655, 2p1294, 2p957, 42p495, 3p78, 2p415, 2p442, 2p551 and 2p1130 clones, as well as 2p80 monospecific antibody, were captured using Protein A chip. A serial dilution of human CD40-his tag protein was injected over captured antibody for 2 mins at a flow rate of 30 μl/min. The antigen was allowed to dissociate for 6 min. All the experiments were carried out on a Biacore T200. Data analysis was carried out using the Biacore T200 evaluation software.

T1 sequence (P25942 21-193 limits assumed): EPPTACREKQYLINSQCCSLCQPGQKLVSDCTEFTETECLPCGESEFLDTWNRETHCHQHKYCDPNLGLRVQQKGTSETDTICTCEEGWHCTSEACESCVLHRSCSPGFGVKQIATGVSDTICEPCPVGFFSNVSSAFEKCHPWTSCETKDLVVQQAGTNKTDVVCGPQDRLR

B1: 2p834 chimeric monospecific antibody (antibody, V domains shown)
VH: QSQLVESGGGLVQPGGSLRLSCAASGFAFRRYTMSWVRQAPGKGLEWVSTITHNGSITTYAESAQGRFTISRDNAKNTLYLQMNSLKPEDTAVYYCAQGGGSNYYRESWGQGTQVTVSS
notes: Chimeric monospecific antibody
- EC50 (human CD40-His protein [1]): 0.76 nM
- EC50 (read off the curve) [2]: ~0.2 nM
- CD40 NF-κB luciferase reporter (Jurkat), RLU [3]: > 10 nM
- binding result (human 4-1BB protein): no binding (tested: 100 nM (highest concentration))
- binding result (human OX40 protein): no binding (tested: 100 nM (highest concentration))
- EC50 [4]: 0.2 nM

B2: 3p78 chimeric monospecific antibody (antibody, V domains shown)
VH: B1 VH with Q1P, S2V, A28T, R31N, T33A, S56A
notes: as for B1
- EC50 (human CD40-His protein [1]): 2.95 nM
- EC50 (read off the curve) [2]: ~2 nM
- CD40 NF-κB luciferase reporter (Jurkat), RLU [3]: > 10 nM
- binding result (human 4-1BB protein): no binding (tested: 100 nM (highest concentration))
- binding result (human OX40 protein): no binding (tested: 100 nM (highest concentration))
- EC50 [4]: 2.84 nM

B3: 286B4 anti-5T4 mouse monoclonal antibody (antibody, V domains shown)
VH: DVQLHESGPGLVKPSQSLSLTCSVTGYSITNNYYWNWIRQFPGNNLEWMGYITYDGSNNYNPSLKNRISVTRDTSKNQFFLKLSSVTTEDTATYYCTRGGGQLRFDYWGQGTTLTVSS
VL: SIVMTQTPKFLIVSAGDRVTITCKASQSVSNEVTWYQQKPGQSPKMLIYYASNRYTGVPDRFTGSGYGTDFTFTINTVQAEDLAIYFCQQDYSSPWTFGGGTKLEIK
notes: Mouse monoclonal antibody from hybridoma
- binding result (human 5T4): binds

B4: 2p931 chimeric monospecific antibody (antibody, V domains shown)
VH: AVQLVESGGGLVQPGGSLRLSCAASGFSFRNYMMNWVRQAPGKGLECLSSITSAGDITSYTESVKGRFTISRDNAKNTLYLQMNSLKPEDTAVYYCAQGGCGNYYRESWGQGTQVTVSS
notes: as for B1
- EC50 (human CD40-His protein [1]): 0.99 nM
- EC50 (read off the curve) [2]: ~0.2 nM
- CD40 NF-κB luciferase reporter (Jurkat), RLU [3]: > 10 nM
- binding result (human 4-1BB protein): no binding (tested: 100 nM (highest concentration))
- binding result (human OX40 protein): no binding (tested: 100 nM (highest concentration))
- EC50 [4]: 0.26 nM

B5: b16 (42p155z2)-LALA humanized anti-5T4/CD40 bispecific antibody (bispecific antibody, human IgG1, kappa, L234A L235A)
heavy 1: QVQLVQSGAEVKKPGASVKVSCKASGYAFSSSWMNWVRQAPGQGLEWMGRIYREDGHTNYNGKFKGRVTMTADKSITTAYMELSRLRSDDTAVYYCANGGAMDYWGQGTLVTVSSASTKGPSVFPLAPSSKSTSGGTAALGCLVKDYFPEPVTVSWNSGALTSGVHTFPAVLQSSGLYSLSSVVTVPSSSLGTQTYICNVNHKPSNTKVDKKVEPKSCDKTHTCPPCPAPEAAGGPSVFLFPPKPKDTLMISRTPEVTCVVVDVSHEDPEVKFNWYVDGVEVHNAKTKPREEQYNSTYRVVSVLTVLHQDWLNGKEYKCKVSNKALPAPIEKTISKAKGQPREPQVCTLPPSREEMTKNQVSLSCAVKGFYPSDIAVEWESNGQPENNYKTTPPVLDSDGSFFLVSKLTVDKSRWQQGNVFSCSVMHEALHNHYTQKSLSLSPGK
light: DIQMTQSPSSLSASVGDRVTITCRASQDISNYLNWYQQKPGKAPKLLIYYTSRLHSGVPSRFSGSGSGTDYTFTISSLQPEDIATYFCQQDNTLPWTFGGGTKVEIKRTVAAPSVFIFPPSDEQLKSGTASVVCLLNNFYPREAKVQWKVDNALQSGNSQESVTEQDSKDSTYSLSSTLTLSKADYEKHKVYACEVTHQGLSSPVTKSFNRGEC
heavy 2: not shown
- EC50 (read off the curve) [5]: ~0.5 nM

B6: 159D5 anti-5T4 mouse monoclonal antibody (antibody, V domains shown)
VH: DVQLVESGGGLVQPGGSRKLSCTASGFTFSNFGMHWVRQAPETGLEWVAYISSGSSTFYYADSVKGRFTISRDNPKNTLFLQMTSLRSEDTAMYFCARSPAYYRYGLDYWGQGTTLTVSS
VL: DIVLTQSPASLAVSLGQRATISCRASQSVSSSTFSYMHWYQQKPGQPPKLLIKSSSNLESGVPARFSGSGSGTDFTLNIHPVEEEDTATYYCQHSWEIPYTFGGGTKLEIK
notes: as for B3
- binding result (human 5T4): binds

B7: 2p80 chimeric monospecific antibody (antibody, V domains shown)
VH: QLQLVESGGGLVQAGGSLRLSCAASGRIFSSYAMSWFRQAPGKEREFVATIGWIGENTYYADSVKGRFTISRDNAKNTLYLQMNSLKPEDTAVYYCAAGLPANRYYDYWGQGTQVTVSS
notes: Chimeric monospecific antibody; also called 2p80 cAb
- EC50 (human CD40-His protein [1]): 3.08 nM
- Kd (human CD40-His protein [6]): 213 nM
- koff (human CD40-His protein [6]): 0.000293 s⁻¹
- kon (human CD40-His protein [6]): 1380 M⁻¹ s⁻¹
- CD40 NF-κB luciferase reporter (Jurkat), RLU [3]: > 10 nM
- binding result (human 4-1BB protein): no binding (tested: 100 nM (highest concentration))
- binding result (human OX40 protein): no binding (tested: 100 nM (highest concentration))
- EC50 [4]: 8.29 nM

B8: 393E9 anti-5T4 mouse monoclonal antibody (antibody, V domains shown)
VH: EVKLVESGGGLVQPGGSLSLSCAASGFTFTDYYMSWVRQPPGKALEWLGFIRNKGNGYTTENSASVKGRFTISRDNSQSILYLQMNALRAEDSATYYCARYRGNPHYAMDYWGQGTSVTVSS
VL: DIVLTQFPASLAVSLGQRATISCRASESVEFYGTSFLQWYQQKPGQPPKLLIYGASNVESGVPARFSGSGSGTDFSLSIHPVEEDDIAMYFCQQSRKVPSTFGGGTKLEIK
notes: as for B3
- binding result (human 5T4): binds
